The nature of the series: soluble on expression in E. coli; label from the status in PepcDB or PDB records.
Consider “MAGKKTITINGVEMEASEEQTVLQLLNNSSIEVPQVCYHPSLGPIETCDTCIVSINGELKRSCSAELKDGDVIDTLSPDVKKAQVIGMDKILYNHELYCTVCDYNNGGCEIHNTVKEMKINHQSIPFDHKPYHKDESHPFYRYDPDQCILCGRCVEACQDVQVTETLTIDWERKRPRVIWDNDVPINESSCVSCGHCSTVCPCNAMMEKGMEGEAGYLTGINNETLRPMIEITKGVETGYGSILAISDMESAMRDERIKKTKTVCTYCGVGCSFDVWTKGRDILKVEPQEEAPANGISTCVKGKFGWDFVNSEERLTKPLIREGDHFREAEWEEALLLIASKFTELKEAFGPDSLAFITSSKCTNEESYLMQKLARGVIGTNNVDNCSRYCQSPATAGLFRTVGYGGDSGSITDIAQADLVLIIGSNTSESHPVLSTRIKRAHKLRGQKVIVADIRKHEMAERSDLFVQPRAGSDIVWLNAIAKYLIENGKADERFLRERVNGRDEYVKSLAPYTLEYAEEKTGIDQETLIQMAEMIGQADSVCALWAMGVTQHIGGSDTSTAISNLLLVTGNYGKPGAGSYPLRGHNNVQGASDFGSMPDRLPGYEKVTDEQVRQKYERVWGVPLPKEPGMTNHEMIEKIHSGQLKAMYVKGEEMGLVDSNINHVHAAYEKLDFFVVQDIFLSRTAEFADVVLPASPSLEKEGTFTNTERRIQRLYQVFEPLGESKPDWQIIMEVANKLGAGWLYEHPADIMEEAAKLSPIYAGVTYERLEGYNSLQWPVNADGKDSPLLFTERFPFPDGKAILYPVQWTEPKEFGEEYDIHVNNGRLLEHFHEGNLTYKSKGISEKTPEVFLEISPELAAERGIQDGTLVRLTSPFGNVKVKCLITDRVKGKEVYLPMNDSGEAAINLLTGSHADKDTDTPAYKETSAKMEILKHDGISPLPKINHRNGNPQPQIGVQVHKKWARKDYIFPGDAVKRGM”, for which the “soluble on expression in E. coli” value is recorded as “not soluble”.
For “MKVAVLGATGKEGQLLLAEAKRRGMDVTAIVRNASKITDGTPTIEKDVYQLTTEDIQAFDVLISALGFPDVQDFPKSTQHLIEILTNQKTRLFVVGGAGTLYVDPEHTTQLKDTPSFPAEIQPLASAMGEALNLLKEAQNIHWTYISPAAMFDADGPATGHYEVAGEELTTNSQGDSYISYADYAVAMLDEVESNAHPNQRISVYQLEHHHHHH” the value was “soluble”.
For “GPGSMSAHSAARRWTNLAGIGSCHPRHHHYPTSTKEVQDAVELVRSQNGKCRVAGAGKSPNTATFTNEHLIHMERMNRILSIDTVAHTITCEAGAVMEEVMRSVDKVGLMVRCVPSYVRTTVGGCIATATHSSGIQCHCLSDYVRGLKIVDGCAQIRTLVAGKDDAELRLAACHLGVMGIVTEVTLEVQPRIQWKLVSQPLLMKDATNAALVAEKVKSTEYYRWWWVPHTDGCYESYGRVESTTGISALPPLPDALTAQDDAPVQLSPAALQEESRTNESAERAGDRSISLIVKSALKYIATDFVRHQVVECSLYAACLCPAIQPYVNKAYRRAFFSAPQVQRGSALECFTFDCLFKQWANEWAIDASRAVEAFNRLRDMIDREGMLLHFPVEFRFTAPDVSDMSPAVGRPTCWIGVVMYRPYGQEARDTRRCYDGFCRVMEEMGGRPHWAKYYDWGHREITATYGDHWERFLALRRRMDPDDIFVNGWFRNLMSPDRVNSTACTP” the value was “not soluble”; for “GVACKPKEKPSSATSLTDDALMDTVQRRTFNYFWDAAEPNSGLARERYHMDGEYPAGGPEIVTSGGSGFGIMAILAGIDRGYVSREEGLRRMEKIVGFLEKADRFKGAYPHWWNGETGHVQPFGQKDNGGDLVETAFLMQGLLAVHQYYAEGSAEEKKLAGRIDKLWREVDWNWYRHGGQNVLYWHWSPEYGWEMNFPVHGYNECLIMYILAAASPTHGVPAAVYHEGWAQNGAIVSPHKVEGIELHLRYQGGEAGPLFWAQYSFLGLDPVGLKDEYCPSYFNEMRNLTLVNREYCIRNPKHYKGYGPDCWGLTASYSVDGYAAHGPLERDDRGVISPTAALSSIVYTPDQSLQVMHHLYEMGDKVFGPYGFYDAFSETADWYPKRYLAIDQGPIAVMIENYRTGLLWKLFMSHPDVQNGLKKLGFNVKK”, “soluble”; for “SLVDLAADILVADAHMHTNPTRGLGAREVARRFRREGGWFAALLTLTTWSYGLAPTGVEAYRRMYEIHLRECRAAREEGLRVACFAGIHPAEVDRMIDKHRQPPEKALETALEAVEVLRRLCREGAIDGVGEVGRQHYRTSPLRVAIAEVVLEEAAAAALEEGCLLQLHLENEGPATVETVDRILRRAGATGARRGMVIFHHATLRVAKEAVARGYNATIPGVPKLLEHAAANEPPDYMVESDYLDDPARPGAVVEPWKMAQKLREIASRTPETREWVRRTNIDLVERVFQASPP”, “not soluble”.
The value for “FLDGIDKAQEEHEKYHSNWRAMASDFNLPPVVAKEIVASCDKCQLKGEAMHGQVDCSPGIWQLDCTHLEGKVILVAVHVASGYIEAEVIPAETGQETAYFLLKLAGRWPVKTVHTDNGSNFTSTTVKAACDWAGIKQEDGIPYNPQSQGVIESMNKELKKIIGQVRDQAEHLKTAVQMAVFIHNKKRKGGIGGYSAGERIVDIIATDIQTKELQKQITKIQNFRVYYRDSRDPVWKGPAKLLWKGEGAVVIQDNSDIKVVPRRKAKIIRDYGKQMAGDDCVASRQDED” was “soluble”; that for “MSLQKVKLPLTLDPVRTAQKRLDYQGIYTPDQVERVAESVVSVDSDVECSMSFAIDNQRLAVLNGDAKVTVTLECQRCGKPFTHQVYTTYCFSPVRSDEQAEALPEAYEPIEVNEFGEIDLLAMVEDEIILALPVVPVHDSEHCEVSEADMVFGELPEEAQKPNPFAVLASLKRKEGGSHHHHHH” was “soluble”; that for “MGLGRQSLNIMTFSGQELTAIIKMAKSMVMADGKIKPAEIAVMTREFMRFGILQDQVDLLLKASDSIEASQAVALIARMDEERKKYVASYLGVIMASDGDIDDNELALWTLISTLCGLPTMTVMEAINNMKNL” was “soluble”.
On to “MGSDKIHHHHHHMADGTSLSIDAKPTEEFSVREVFGIDTDMKVKGFAEPTDRVPAIDPTYKFDPDTTLAILAGYGYNRRVMVQGYHGTGKSTHIEQVGARLNWPTVRVNLDSHISRIDLIGKDAIKLRDGKQVTEFHEGILPWALRNPVAIVFDEYDAGRADVMFVIQRVLETDGKLTLMDQNEIITPNPCFRLFATANTVGLGDTTGLYHGTQQINQAQMDRWSLVATLNYLRHDAEVNIVLAKCPHYNTETGRKTMNQMVTVADLTRTAFMNGELSTVMSPRTVINWAQNAEIFRDVGYAFRVSFLNKCDELERQTVAEFYQRCFDEELPESAASMSLG”, for which the “soluble on expression in E. coli” value is recorded as “not soluble”.
The value for “MASKSQKKVLKKQNKKKKKDPLAPKRALSAYMFYVKDKRLEIIKEKPELAKDVAQVGKLIGEAWGQLSPAQKAPYEKKAQLDKVRYSKEIEEYRKKNQE” was “soluble”.
The value for “GMASSGTEHDAMRARLVDVAQAIVEERGGAGLTLSELAARAGISQANLSRYFETREDLMEAIADYWFHPMVEIMEDVLASDLPPRRKMYEFFARRFVVMRRKWEADPVKLQTYIEVGNDYFEQVRSYIDLADHYLGEIIGEAMSDGAFSGLEVDETISLVNQMCAPYCALNTMTTFMERLSEDKLARIVDAVFDGLSAQDRGARSLTGLRAA” was “soluble”; that for “MAHHHHHHMATAKELGPGGLREDGRPIFIATDHTKFTPSTKQELTDQQKLAWKSFQLWRTTLGIERRDNVYKTLTNSDYTNFRLGTHILGTPYPVIETVPGFFDVFKAVRWYEHAISLAVALGYGYWIRSKASTRYSRMMPMSRTSITMLTFISTDLCFCYRSMYRLTGYLPNEYECFKYGVLEDKDKLQRKKELWEKYANHKREWCRRYDYHVYGIRPGETFSFFSACMIPSWEPRYNTRTDYPPRKNPYFLTSTPLRDTFLESPFTYEIPKDETVPLVRERPELKYLYRGPGRTTPPSDEK” was “not soluble”; that for “MGHHHHHHSHSLHYIHPYQPNEYLKALVAVGEICQDYDSDKMFPAFGFGARIPPEYTVSHDFAINFNEDNPECAGIQGVVEAYQSCLPKLQLYGPTNIAPIIQKVAKSASEETNTKEASQYFILLILTDGVITDMADTREAIVHASHLPMSVIIVGVGNADFSDMQMLDGDDGILRSPKGEPVLRDIVQFVPFRNFKHASPAALAKSVLAEVPNQVVDYYNGKGIKPKCSSEMY” was “soluble”.
The value for “MKIVFLECSVELVPRSLWSHPQVLKSARRYGIEPGDLLLDKSLHYNAMAELPAKWKRGRPDILHVALLTTTDSPLYNEGLLRIYFQVYDGRLFEVGTGVRVPKNYERFRGLVAQLLKTERVPPGEGEALIRLHSRSLAEFVEREGRFILMWEKGSPTTTTYVAARALSTGLPIGVGCFPRGEFKRSTLRKASEAYSIMGGAPLKTWGVASRIVYALERLKSPFTLEHHHHHH” was “soluble”; that for “MSNENHEELNDQLIVRREKVDTLREEGIDPFGEKFIRSISPEEIETKFADKSKEELEEAAIEVSVAGRIMTKRVKGKVGFTHIQDRFHQLQIYIRKDAIGEDAYAVFKLADLGDIIGIKGTIFRTNTGELSVKATEFTLLSKSLRPLPDKYHGLKDVEQRYRQRYLDLITNEESQNRFVMRSKILKYTRDYMDNQGFLEVETPVLHTIAGGAAAKPFITHHNALDMELYLRIALELHLKRLIVGGMDKVYEIGRVFRNEGTSTRHNPEFTMLESYAAYEDYEDVMDLVEGLVSTVCKQVNGTTEITYGEYKVDLTPNWRRIHMADAVKEYVGVDFWNVTSDEEARELAKKHDVPVTEHMTYGHILNEFFETYVEEKLIQPTFVYGHPVEISPLAKKNKEDERFTDRFELFIVGREHANAFSELNDPIDQRERFEAQMKEREQGNDEAHGMDADFLEALEYGLPPTGGLGIGIDRLVMLLTDAPSIRDILLFPTMKHRD” was “not soluble”.
As to “MSLGTLKLFNIGNMVTYSMNESSMISSKGMEILISDGKIIEIGPKVGDADQLFDCENKLVTPGFVDCHTHPVFLDGRENEFEMRLKGFSYEEIANEGGGIKNSVKSVRNSSEVELYNRVISRMDKFLKLGTTTIEAKSGYGLDINSELKSLKVIHEVNLAHQIDILPTFMGAHAVPNEYADDIDSYVDLICDSMIPQVAEQGIAIFNDVFCEKGYFNLKQSERILKKGLDYGLLPRIHSDEFNNLGASKLAGKLNLISADHLMKIEKDDIEIMADSNTKAVLLPGTTFFLGHSNYAPYHKLKEAGIEVAIASDYNPEGHHHHHH”, the “soluble on expression in E. coli” value is “soluble”.
The value for “SNAMRMIDIIEKKRDGHTLTTEEINFFIGGYVKGDIPDYQASSLAMAIYFQDMNDDERVALTMAMVNSGDMIDLSDIKGVKVDKHSTGGVGDTTTLVLAPLVAAVDVPVAKMSGRGLGHTGGTIDKLEAIDGFHVEIDEATFVKLVNENKVAVVGQSGNLTPADKKLYALRDVTGTVNSIPLIASSIMSKKIAAGADAIVLDVKTGSGAFMKTLEDAEALAHAMVRIGNNVGRNTMAIISDMNQPLGRAIGNALELQEAIDTLKGQGPKDLTELVLTLGSQMVVLANKAETLEEARALLIEAINSGAALEKFKTFIKNQGGDETVIDHPERLPQAQYQIEYKAKKSGYVTELVSNDIGVASMMLGAGRLTKEDDIDLAVGIVLNKKIGDKVEEGESLLTIHSNRQDVDDVVKKLDSSITIADHVVSPTLIHKIITE” was “soluble”.
